Measurements taken from patent US20140234351A1, “CANCER VACCINES AND VACCINATION METHODS” (ImmunoCellular Therapeutics, Ltd., priority 2013, published 2014).

Molecular target: HLA-A*0201 molecules on TAP-deficient T2 cells (human)
Test: T2 cell binding assay, fluorescence index (MFI peptide - MFI untreated)/MFI untreated
Details: remark: other sources report otherwise

MFI index: > 1.5
Binder: VMAGVGSPYV [HER2/neu 773-782 HLA-A2 peptide]
